Data as given in publication doi:10.1101/2024.02.08.579428.

T1: GUN1-FL (Arabidopsis thaliana, UniProt Q9SIC9 1-918)
T1 sequence: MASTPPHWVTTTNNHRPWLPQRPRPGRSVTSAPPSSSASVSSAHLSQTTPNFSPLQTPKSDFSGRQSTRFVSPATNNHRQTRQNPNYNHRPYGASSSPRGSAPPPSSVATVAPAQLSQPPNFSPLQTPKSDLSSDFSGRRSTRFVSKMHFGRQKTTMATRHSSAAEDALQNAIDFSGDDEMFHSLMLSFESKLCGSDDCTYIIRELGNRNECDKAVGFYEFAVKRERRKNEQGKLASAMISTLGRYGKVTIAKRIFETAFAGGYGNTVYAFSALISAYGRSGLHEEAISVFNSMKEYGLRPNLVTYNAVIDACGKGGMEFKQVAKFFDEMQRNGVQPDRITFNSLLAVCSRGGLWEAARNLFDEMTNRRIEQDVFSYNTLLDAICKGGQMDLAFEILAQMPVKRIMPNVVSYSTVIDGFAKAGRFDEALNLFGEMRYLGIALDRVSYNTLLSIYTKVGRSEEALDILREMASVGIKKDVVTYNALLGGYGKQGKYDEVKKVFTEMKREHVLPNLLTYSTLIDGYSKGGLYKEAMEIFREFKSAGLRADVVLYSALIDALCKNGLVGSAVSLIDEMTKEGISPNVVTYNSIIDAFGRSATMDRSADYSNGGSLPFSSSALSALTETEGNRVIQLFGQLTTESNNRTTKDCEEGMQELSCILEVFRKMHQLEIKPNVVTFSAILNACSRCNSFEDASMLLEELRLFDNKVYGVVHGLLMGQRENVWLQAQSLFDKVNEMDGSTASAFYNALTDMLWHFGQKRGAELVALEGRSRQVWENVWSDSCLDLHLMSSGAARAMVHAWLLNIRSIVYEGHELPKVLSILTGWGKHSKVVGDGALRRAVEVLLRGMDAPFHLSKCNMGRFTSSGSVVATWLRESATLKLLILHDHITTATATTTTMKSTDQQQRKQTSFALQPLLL

T2: GUN1-PS (Arabidopsis thaliana, UniProt Q9SIC9 232-918)
T2 sequence: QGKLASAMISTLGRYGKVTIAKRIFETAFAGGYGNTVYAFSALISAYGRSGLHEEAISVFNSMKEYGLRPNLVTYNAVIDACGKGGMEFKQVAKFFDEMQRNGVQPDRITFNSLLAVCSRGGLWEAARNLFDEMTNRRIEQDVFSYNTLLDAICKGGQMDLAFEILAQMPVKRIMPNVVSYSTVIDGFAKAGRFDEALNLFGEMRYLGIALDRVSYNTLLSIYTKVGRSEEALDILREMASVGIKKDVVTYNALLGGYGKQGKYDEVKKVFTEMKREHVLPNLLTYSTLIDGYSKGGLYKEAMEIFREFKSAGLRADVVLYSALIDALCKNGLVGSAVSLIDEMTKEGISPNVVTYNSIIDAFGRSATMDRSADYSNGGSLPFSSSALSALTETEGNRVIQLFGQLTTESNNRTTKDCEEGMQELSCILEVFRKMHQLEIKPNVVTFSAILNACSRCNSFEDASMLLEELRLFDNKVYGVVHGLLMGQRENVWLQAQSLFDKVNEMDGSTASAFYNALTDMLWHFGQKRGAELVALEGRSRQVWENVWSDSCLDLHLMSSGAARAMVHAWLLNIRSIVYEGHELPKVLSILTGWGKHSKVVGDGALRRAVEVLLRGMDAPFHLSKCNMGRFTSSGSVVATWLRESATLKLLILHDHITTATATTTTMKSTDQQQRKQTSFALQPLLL


Legend:
GUN1-FL = molecular target: T1, GUN1-FL; test: EMSA
GUN1-PS = molecular target: T2, GUN1-PS; test: EMSA

Binder	binding result (GUN1-FL)	binding result (GUN1-PS)
AGAAAAAAAUCUGUUGAUAAAUGAA (ssRNA) [ndhG_118454]	binds	
AAGAGACAACCUGGCGAACUGAAAC (ssRNA) [23S_104856]	binds	binds
